Results as given in PMC11402830.

Target: T1, human peptidyl arginine deiminase 6 (human), Q6TGC4
T1 chain: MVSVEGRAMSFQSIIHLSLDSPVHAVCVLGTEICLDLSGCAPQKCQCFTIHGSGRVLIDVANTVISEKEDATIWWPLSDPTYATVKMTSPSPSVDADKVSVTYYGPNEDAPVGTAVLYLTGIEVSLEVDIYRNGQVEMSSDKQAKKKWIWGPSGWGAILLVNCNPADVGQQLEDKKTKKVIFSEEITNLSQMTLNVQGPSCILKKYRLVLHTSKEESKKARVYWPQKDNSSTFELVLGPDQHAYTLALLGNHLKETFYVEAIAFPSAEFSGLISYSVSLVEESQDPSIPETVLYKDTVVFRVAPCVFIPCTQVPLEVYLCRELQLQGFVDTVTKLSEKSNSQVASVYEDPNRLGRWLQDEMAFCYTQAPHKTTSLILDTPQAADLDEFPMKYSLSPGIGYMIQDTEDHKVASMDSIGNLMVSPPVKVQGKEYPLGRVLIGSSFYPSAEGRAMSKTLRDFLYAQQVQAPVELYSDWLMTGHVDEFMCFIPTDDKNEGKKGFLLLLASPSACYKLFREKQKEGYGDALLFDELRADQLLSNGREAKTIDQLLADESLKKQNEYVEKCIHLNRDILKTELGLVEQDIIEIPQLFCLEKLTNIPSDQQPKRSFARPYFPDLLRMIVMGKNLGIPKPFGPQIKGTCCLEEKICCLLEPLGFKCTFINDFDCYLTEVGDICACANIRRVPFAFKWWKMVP
Assay: mass photometry; hPADI6 at 4 nM (diluted to about 40 nM in 50 mM Tris-HCl pH 7.5, 200 mM NaCl, 1 mM TCEP, then 2 uL into 18 uL PBS), TwoMP instrument; dimer to monomers
Settings: remark: other sources report otherwise

dimer:monomer ratio at 4 nM (dimer:monomer): 8
stoichiometry N: 2
B1: human peptidyl arginine deiminase 6, Q6TGC4 1-694 (natural protein)
chain: T1 chain
